According to patent publication US20200317779A1:

Columns and labels:
[1] = molecular target: recombinant cynomolgus monkey CD3ε/δ heterodimer (cynomolgus monkey) (UniProt Q95LI5); test: ELISA, coated CD3ε/δ
[2] = molecular target: recombinant human CD3ε/δ heterodimer (human) (UniProt P07766); test: ELISA, coated CD3ε/δ
[3] = molecular target: recombinant cynomolgus monkey CD3ε/δ heterodimer (cynomolgus monkey) (UniProt Q95LI5); test: BLI (Octet), antigen on anti-Penta His sensor, antibody 50 nM
[4] = molecular target: recombinant human CD3ε/δ heterodimer (human) (UniProt P07766); test: as above

recombinant cynomolgus monkey CD3ε/δ heterodimer (cynomolgus monkey), sequence (Q95LI5 22-117, stated change not applied, chain 1 of 2): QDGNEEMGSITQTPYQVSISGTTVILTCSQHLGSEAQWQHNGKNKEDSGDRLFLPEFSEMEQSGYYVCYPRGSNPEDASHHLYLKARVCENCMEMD
recombinant cynomolgus monkey CD3ε/δ heterodimer (cynomolgus monkey), sequence (Q95LI8 22-105, stated change not applied, chain 2 of 2, further chain): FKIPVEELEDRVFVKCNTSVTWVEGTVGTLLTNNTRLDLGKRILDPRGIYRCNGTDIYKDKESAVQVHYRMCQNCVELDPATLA
recombinant human CD3ε/δ heterodimer (human), sequence (P07766 23-126, stated change not applied, chain 1 of 2): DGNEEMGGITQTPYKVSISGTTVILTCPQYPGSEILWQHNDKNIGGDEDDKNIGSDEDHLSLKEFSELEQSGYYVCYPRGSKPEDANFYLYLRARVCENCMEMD
recombinant human CD3ε/δ heterodimer (human), sequence (P04234 22-105, stated change not applied, chain 2 of 2, further chain): as the sequence (Q95LI8 22-105, stated change not applied, chain 2 of 2, further chain) above, with V5I, K15N, V20I, T32S, N33D, N34I, A64T, N74S, L83V counted along it

Absorbance (450 nm) [1]	Absorbance (450 nm) [2]	Kd [3] [nM]	koff [3] [s⁻¹]	kon [3] [M⁻¹ s⁻¹]	Kd [4] [nM]	koff [4] [s⁻¹]	kon [4] [M⁻¹ s⁻¹]	Binder
2.53	0.897	21.6	0.00266	123000	35	0.00287	82000	D08 (antibody, human IgG1, lambda, L234A L235A, V domains shown) VH: EVQLVESGGGLVQPGGSLKLSCAASGFTFNTYAMNWVRQASGKGLEWVGRIRSKYNNYATYYADSVKDRFTISRDDSQSTLYLQMNSLKTEDTAVYYCVRHGNFGNSYVSWFAYWGQGTLVTVSS VL: QAVVTQEPSLTVSPGGTVTLTCRSSTGAVTTSNYANWFQQKPGQAPRGLIGGTNKRAPWTPARFSGSLLGDKAALTLSGAQPEDEAEYYCALWYSNLWVFGGGTKLTVLG
2.85	2.46	1.37	0.000253	185000	0.852	0.00012	141000	F16 (antibody, human IgG1, lambda, L234A L235A, V domains shown) VH: EVQLVESGGGLVQPGGSLKLSCAASGFTFNTYAMNWVRQASGKGLEWVARIRSKYNNYATYYADSVKDRFTISRDDSKNTLYLQMNSLKTEDTAVYYCVRHGNFGNSYVSWFAYWGQGTLVTVSS VL: QAVVTQEPSLTVSPGGTVTLTCRSSTGAVTTSNYANWVQQKPGQAPRGLIGGTNKRAPWTPARFSGSLLGDKAALTLSGAQPEDEAEYYCALWYSNLWVFGGGTKLTVLG
2.77	2.48	1.75	0.00034	195000	1.32	0.000201	153000	G16 (antibody, human IgG1, lambda, L234A L235A, V domains shown) VH: EVQLVESGGGLVQPGGSLKLSCAASGFTFNTYAMNWVRQASGKGLEWVARIRSKYNNYATYYADSVKDRFTISRDDSQSTAYLQMNSLKTEDTAVYYCVRHGNFGNSYVSWFAYWGQGTLVTVSS VL: QAVVTQEPSLTVSPGGTVTLTCRSSTGAVTTSNYANWVQQKPGQAPRGLIGGTNKRAPWTPARFSGSLLGDKAALTLSGAQPEDEAEYYCALWYSNLWVFGGGTKLTVLG
2.74	2.4	2.19	0.000482	220000	1.76	0.000284	162000	E16 (antibody, human IgG1, lambda, L234A L235A, V domains shown) VH: EVQLVESGGGLVQPGGSLKLSCAASGFTFNTYAMNWVRQASGKGLEWVARIRSKYNNYATYYADSVKDRFTISRDDSKNTAYLQMNSLKTEDTAVYYCVRHGNFGNSYVSWFAYWGQGTLVTVSS VL: QAVVTQEPSLTVSPGGTVTLTCRSSTGAVTTSNYANWVQQKPGQAPRGLIGGTNKRAPWTPARFSGSLLGDKAALTLSGAQPEDEAEYYCALWYSNLWVFGGGTKLTVLG
2.86	2.79	0.364	0.000165	453000	0.296	9.58e-05	323000	A15 (antibody, human IgG1, lambda, L234A L235A, V domains shown) VH: EVQLVESGGGLVQPGGSLKLSCAASGFTFNTYAMNWVRQASGKGLEWVGRIRSKYNNYATYYADSVKDRFTISRDDSKNTAYLQMNSLKTEDTAVYYCVRHGNFGNSYVSWFAYWGQGTLVTVSS VL: QAVVTQEPSLTVSPGGTVTLTCRSSTGAVTTSNYANWVQQKPGQAPRGLIGGTNKRAPWTPARFSGSLLGGKAALTLSGAQPEDEAEYYCALWYSNLWVFGGGTKLTVLG

The next lines start with the binder.

Binder	Absorbance (450 nm) [1]	Absorbance (450 nm) [2]	Kd [3] [nM]	koff [3] [s⁻¹]	kon [3] [M⁻¹ s⁻¹]	Kd [4] [nM]	koff [4] [s⁻¹]	kon [4] [M⁻¹ s⁻¹]
E15 (antibody, human IgG1, lambda, L234A L235A, V domains shown) VH: EVQLVESGGGLVQPGGSLKLSCAASGFTFNTYAMNWVRQASGKGLEWVARIRSKYNNYATYYADSVKDRFTISRDDSKNTAYLQMNSLKTEDTAVYYCVRHGNFGNSYVSWFAYWGQGTLVTVSS VL: QAVVTQEPSLTVSPGGTVTLTCRSSTGAVTTSNYANWVQQKPGQAPRGLIGGTNKRAPWTPARFSGSLLGGKAALTLSGAQPEDEAEYYCALWYSNLWVFGGGTKLTVLG	2.7	2.41	1.86	0.00054	290000	1.74	0.000392	225000
B07 (antibody, human IgG1, lambda, L234A L235A, V domains shown) VH: EVQLVESGGGLVQPGGSLKLSCAASGFTFNTYAMNWVRQASGKGLEWVGRIRSKYNNYATYYADSVKDRFTISRDDSKNTLYLQMNSLKTEDTAVYYCVRHGNFGNSYVSWFAYWGQGTLVTVSS VL: QAVVTQEPSLTVSPGGTVTLTCRSSTGAVTTSNYANWFQQKPGQAPRGLIGGTNKRAPWTPARFSGSLLGGKAALTLSGAQPEDEAEYYCALWYSNLWVFGGGTKLTVLG	2.45	0.718	30.9	0.00642	208000	21.4	0.00423	198000
A07 (antibody, human IgG1, lambda, L234A L235A, V domains shown) VH: EVQLVESGGGLVQPGGSLKLSCAASGFTFNTYAMNWVRQASGKGLEWVGRIRSKYNNYATYYADSVKDRFTISRDDSKNTAYLQMNSLKTEDTAVYYCVRHGNFGNSYVSWFAYWGQGTLVTVSS VL: QAVVTQEPSLTVSPGGTVTLTCRSSTGAVTTSNYANWFQQKPGQAPRGLIGGTNKRAPWTPARFSGSLLGGKAALTLSGAQPEDEAEYYCALWYSNLWVFGGGTKLTVLG	2.55	1.31	20.5	0.00315	153000	19.5	0.00232	119000
H16 (antibody, human IgG1, lambda, L234A L235A, V domains shown) VH: EVQLVESGGGLVQPGGSLKLSCAASGFTFNTYAMNWVRQASGKGLEWVARIRSKYNNYATYYADSVKDRFTISRDDSQSTLYLQMNSLKTEDTAVYYCVRHGNFGNSYVSWFAYWGQGTLVTVSS VL: QAVVTQEPSLTVSPGGTVTLTCRSSTGAVTTSNYANWVQQKPGQAPRGLIGGTNKRAPWTPARFSGSLLGDKAALTLSGAQPEDEAEYYCALWYSNLWVFGGGTKLTVLG	2.87	2.46	1.13	0.000206	182000	0.881	0.00012	136000
A08 (antibody, human IgG1, lambda, L234A L235A, V domains shown) VH: EVQLVESGGGLVQPGGSLKLSCAASGFTFNTYAMNWVRQASGKGLEWVGRIRSKYNNYATYYADSVKDRFTISRDDSKNTAYLQMNSLKTEDTAVYYCVRHGNFGNSYVSWFAYWGQGTLVTVSS VL: QAVVTQEPSLTVSPGGTVTLTCRSSTGAVTTSNYANWFQQKPGQAPRGLIGGTNKRAPWTPARFSGSLLGDKAALTLSGAQPEDEAEYYCALWYSNLWVFGGGTKLTVLG	2.34	0.875	21.9	0.00321	147000	22.2	0.00226	102000
D15 (antibody, human IgG1, lambda, L234A L235A, V domains shown) VH: EVQLVESGGGLVQPGGSLKLSCAASGFTFNTYAMNWVRQASGKGLEWVGRIRSKYNNYATYYADSVKDRFTISRDDSQSTLYLQMNSLKTEDTAVYYCVRHGNFGNSYVSWFAYWGQGTLVTVSS VL: QAVVTQEPSLTVSPGGTVTLTCRSSTGAVTTSNYANWVQQKPGQAPRGLIGGTNKRAPWTPARFSGSLLGGKAALTLSGAQPEDEAEYYCALWYSNLWVFGGGTKLTVLG	3.01	2.53	0.533	0.000233	437000	0.294	9.6e-05	327000
F15 (antibody, human IgG1, lambda, L234A L235A, V domains shown) VH: EVQLVESGGGLVQPGGSLKLSCAASGFTFNTYAMNWVRQASGKGLEWVARIRSKYNNYATYYADSVKDRFTISRDDSKNTLYLQMNSLKTEDTAVYYCVRHGNFGNSYVSWFAYWGQGTLVTVSS VL: QAVVTQEPSLTVSPGGTVTLTCRSSTGAVTTSNYANWVQQKPGQAPRGLIGGTNKRAPWTPARFSGSLLGGKAALTLSGAQPEDEAEYYCALWYSNLWVFGGGTKLTVLG	2.75	2.49	1.33	0.000297	224000	1.04	0.000206	197000
H15 (antibody, human IgG1, lambda, L234A L235A, V domains shown) VH: EVQLVESGGGLVQPGGSLKLSCAASGFTFNTYAMNWVRQASGKGLEWVARIRSKYNNYATYYADSVKDRFTISRDDSQSTLYLQMNSLKTEDTAVYYCVRHGNFGNSYVSWFAYWGQGTLVTVSS VL: QAVVTQEPSLTVSPGGTVTLTCRSSTGAVTTSNYANWVQQKPGQAPRGLIGGTNKRAPWTPARFSGSLLGGKAALTLSGAQPEDEAEYYCALWYSNLWVFGGGTKLTVLG	2.84	2.44	1.17	0.000269	230000	0.953	0.000189	199000
G15 (antibody, human IgG1, lambda, L234A L235A, V domains shown) VH: EVQLVESGGGLVQPGGSLKLSCAASGFTFNTYAMNWVRQASGKGLEWVARIRSKYNNYATYYADSVKDRFTISRDDSQSTAYLQMNSLKTEDTAVYYCVRHGNFGNSYVSWFAYWGQGTLVTVSS VL: QAVVTQEPSLTVSPGGTVTLTCRSSTGAVTTSNYANWVQQKPGQAPRGLIGGTNKRAPWTPARFSGSLLGGKAALTLSGAQPEDEAEYYCALWYSNLWVFGGGTKLTVLG	2.69	2.42	1.72	0.000461	269000	1.59	0.000332	209000
D16 (antibody, human IgG1, lambda, L234A L235A, V domains shown) VH: EVQLVESGGGLVQPGGSLKLSCAASGFTFNTYAMNWVRQASGKGLEWVGRIRSKYNNYATYYADSVKDRFTISRDDSQSTLYLQMNSLKTEDTAVYYCVRHGNFGNSYVSWFAYWGQGTLVTVSS VL: QAVVTQEPSLTVSPGGTVTLTCRSSTGAVTTSNYANWVQQKPGQAPRGLIGGTNKRAPWTPARFSGSLLGDKAALTLSGAQPEDEAEYYCALWYSNLWVFGGGTKLTVLG	2.87	2.65	0.611	0.000217	356000	0.446	0.000107	240000
